Measured values from article PMC2879526.

How the values were obtained:
[1] = biological target: T1, THAP zinc finger of hTHAP1 (C62S/C67S) (Homo sapiens, UniProt Q9NVV9 1-81, C62S;C67S); experiment: fluorescence anisotropy
T1 sequence: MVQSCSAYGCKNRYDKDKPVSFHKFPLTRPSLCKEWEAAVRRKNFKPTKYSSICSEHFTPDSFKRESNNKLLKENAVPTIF

[2] = biological target: T2, THAP zinc finger of hTHAP1 K24A (Homo sapiens, UniProt Q9NVV9 1-81, K24A); experiment: fluorescence anisotropy
T2 sequence: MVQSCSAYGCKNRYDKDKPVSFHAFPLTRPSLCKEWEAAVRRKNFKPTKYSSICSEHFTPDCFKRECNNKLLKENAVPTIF

B1: rrm1 16-bp (THABS) (dsDNA)
DNA 1: GCTTGTGTGGGCAGCG
DNA 2: CGCTGCCCACACAAGC
B1 was tested. Which Kd [1] did it give?
Its Kd is 480 ± 60 nM.

B2: non-specific 16-bp DNA (dsDNA)
DNA 1: CGATTTGAATTTTAAC
DNA 2: GTTAAAATTCAAATCG
Does B2 bind [2]?
Result: binds
